Data set [1] can be described thus: Resistance to reduction by DTT, RP-HPLC. Type of data set: physicochemical. To be noted: for Resistance to DTT Reduction (10 mM): 10 mM DTT in PBS, room temperature, 30 minutes, HPLC peak vs untreated peptide. On the procedure:
Peptides were first suspended in 500 ul of ddH2O to a stock concentration of 2 mg/ml. Reactions were prepared by adding 12.5 ug of peptide from the stock solution to a 10 mM solution of DTT in PBS and allowed to incubate at room temperature for 30 minutes. Other reactions were prepared with 12.5 μg peptide with or without 500 U/ml pepsin in simulated gastric fluid (SGF; pH 1.05; […] sodium chloride in 0.7% (v/v) hydrochloric acid) and were incubated for 30 minutes at 37.5° C. Some reactions were quenched with a final concentration of 100 mM Tris base and 10 mM dithiothreitol (DTT). Some reactions were performed in all of the above components, including simulated gastric fluid, pepsin, Tris, and DTT (referred to as SPTD). Reversed phase HPLC (RP-HPLC) was run on samples using an Agilent 1260 HPLC equipped with a C-18 Poroshell 120B column. Sample were analyzed by a gradient method with a mobile phase of Solvent A (water with 0.1% TFA) and Solvent B (acetonitrile with 0.1% TFA). Solvent B was ramped up from 5%-45% of the mobile phase over a period of 10 minutes. Peptides were detected at an absorbance of 214 nm and 280 nm.
Peptides were first suspended in 500 μl of ddH2O to a stock concentration of 2 mg/ml. Reactions were prepared by adding 12.5 μg of peptide from the stock solution to a 10 mM solution of DTT in PBS and allowed to incubate at room temperature for 30 minutes. Other reactions were prepared with 12.5 μg peptide and 500 U/ml trypsin in 25 mM Tris/75 mM NaCl buffer (pH 7.0) and incubated for 30 minutes at 37.5° C. These reactions were then quenched with 5 μg of soybean trypsin inhibitor (I) and, in some cases, 10 mM dithiothreitol (DTT). Reversed phase HPLC (RP-HPLC) was run on samples using an Agilent 1260 HPLC equipped with a C-18 Poroshell 120B column. Sample were analyzed by a gradient method with a mobile phase of Solvent A (water with 0.1% TFA) and Solvent B (acetonitrile with 0.1% TFA). Solvent B was ramped up from 5%-45% of the mobile phase over a period of 10 minutes. For testing pepsin digestion resistance, reactions were prepared with 12.5 μg peptide with or without 500 U/ml pepsin in simulated gastric fluid (SGF; pH 1.05; […] sodium chloride in 0.7% (v/v) hydrochloric acid) and were incubated for 30 minutes at 37.5° C. For testing temperature resistance, peptides were incubated at 70° C., 75° C., or 100° C. for one hour in 0.5 mM PBS, pelleted, and then the supernatant was analyzed by HPLC.
This example illustrates peptide stability in biological conditions including in the presence of reducing agents, proteases, oxidative conditions, acidic conditions, and simulated gastric fluids. […] Various peptides were suspended in 500 μl of ddH2O at a stock concentration of 2 mg/ml. This was then diluted in accord with the reaction conditions to prevent adverse buffering effects. Reactions were prepared with 12.5 μg peptide dissolved in solution and, in some samples, additionally suspended in a 10 mM solution of DTT, simulated gastric fluid (pH 1.05; […] sodium chloride in 0.7% (v/v) hydrochloric acid), 500 U pepsin (5000 U/ml pepsin), 50 U trypsin (500 U/ml trypsin) with 1 mg/ml inhibitor in PBS, or a combination of any of these conditions. All protease reactions were incubated for 30 min at room temperature and then quenched. Pepsin reactions were quenched by adding Tris base to a final concentration of 0.075 M. Trypsin reactions were quenched by adding excess soybean trypsin inhibitor. RP-HPLC was then run on samples using an Agilent 1260 HPLC equipped with a C-18 Poroshell 120B column. Sample were analyzed by a gradient method with a mobile phase of Solvent A (water with 0.1% TFA) and Solvent B (acetonitrile with 0.1% TFA). Solvent B was ramped up from 5%-45% of the mobile phase over a period of 10 minutes.
FIG. 18 illustrates high performance liquid chromatograph (HPLC) traces of peptides in non-reducing (NR) conditions (solid trace) or in 10 mM DTT reducing (R) conditions (dashed trace). […]

Another data set concerns the target trypsin (Sus scrofa, UniProt P00761). Nature of the data set: Trypsin digestion resistance of soluble peptide, RP-HPLC. Type of data set: in vitro ADME, porcine. Also noted: purchased Sigma Aldrich 6567. As to conditions: 30 minutes at 37.5° C.; for Resistance to Trypsin (500 U/ml): 500 U/ml trypsin, HPLC peak vs untreated peptide. Summed up: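 Read-out was RP-HPLC (C-18, water/acetonitrile with 0.1% TFA, 5-45% over 10 min) of peptide left after trypsin treatment. Digest: 12.5 μg peptide, 500 U/ml porcine trypsin, PBS, 37.5° C for 30 min, stopped by soybean trypsin inhibitor; samples then reduced (10 mM DTT) or left non-reduced.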

Chain of trypsin (P00761 9-231): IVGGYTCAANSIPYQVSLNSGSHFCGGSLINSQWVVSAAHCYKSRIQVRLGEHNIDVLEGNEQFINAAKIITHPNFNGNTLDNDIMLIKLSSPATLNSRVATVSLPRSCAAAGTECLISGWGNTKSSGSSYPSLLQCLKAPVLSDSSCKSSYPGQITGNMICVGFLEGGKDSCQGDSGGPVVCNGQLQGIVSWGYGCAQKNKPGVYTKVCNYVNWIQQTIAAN

Take “1 (GSDCLPHLRRCRADNDCCGRRCRRRGTNAERRCR) [compound 1]”: in data set [1], the “Resistance to DTT Reduction (10 mM)” value is on record as “Low (A peptide classified as low indicates that the majority (over 75%) of the HPLC peak of the treated peptide disappeared as compared to the HPLC peak of the untreated peptide)”. Moreover, the “Resistance to Trypsin (500 U/ml)” value with trypsin was “Moderate (A peptide classified as medium indicates that about half (between 25% and 75%) of the HPLC peak of the treated peptide disappeared as compared to the HPLC peak of the untreated peptide)”. As for “26 (GSVGCEECPMHCKGKNANPTCDDGVCNCNV) [compound 26]”, the “Resistance to DTT Reduction (10 mM)” value in data set [1] was “Low (A peptide classified as low indicates that the majority (over 75%) of the HPLC peak of the treated peptide disappeared as compared to the HPLC peak of the untreated peptide)”. Also, in the data set with trypsin, the “Resistance to Trypsin (500 U/ml)” value is “Moderate (A peptide classified as medium indicates that about half (between 25% and 75%) of the HPLC peak of the treated peptide disappeared as compared to the HPLC peak of the untreated peptide)”.

As to “40 (GSPDEYIERAKECCKKGDIQCCLRYFEESGDPNVMLICAFCP) [compound 40]”, in data set [1], the “Resistance to DTT Reduction (10 mM)” value is reported as “Low (A peptide classified as low indicates that the majority (over 75%) of the HPLC peak of the treated peptide disappeared as compared to the HPLC peak of the untreated peptide)”. Still for that read-out and setting: to “41 (GSPDEYIERAKECCKKGDIQCCLRYFEESGDPNVMLICLACP) [compound 41]” belongs “Low (A peptide classified as low indicates that the majority (over 75%) of the HPLC peak of the treated peptide disappeared as compared to the HPLC peak of the untreated peptide)”; to “42 (GSFGLYDNQCATSDACSAICKYWTGSGQGKCQNNQCRCY) [compound 42]”, “Low (A peptide classified as low indicates that the majority (over 75%) of the HPLC peak of the treated peptide disappeared as compared to the HPLC peak of the untreated peptide)”.

As for “44 (GSPDEYIERAKECCKKQDIQCCLRIFDESGDPNVMLICLFCW) [compound 44]”, the “Resistance to DTT Reduction (10 mM)” value in data set [1] is “Moderate (A peptide classified as medium indicates that about half (between 25% and 75%) of the HPLC peak of the treated peptide disappeared as compared to the HPLC peak of the untreated peptide)”.

With “GSDCLPHLRRCRADNDCCGRRCRRRGTNAERRCR [SEQ ID NO: 1]”, the “resistance to reduction by DTT (in words)” value in data set [1] (10 mM DTT, HPLC vs non-reduced peptide) is given as “not resistant”. The “resistance to trypsin digestion (in words)” value in the data set with trypsin (500 U/ml trypsin (50 U per reaction), HPLC) is reported as “partially resistant”.

The values above are taken from US20190375786A1, “STABLE PEPTIDES AND METHODS OF USE THEREOF” (Fred Hutchinson Cancer Research Center, priority 2016, published 2019).
